{
  "source": "patent US20150216970A1",
  "about": "(Genentech, published 2015)",
  "binders": {"B1": {"name": "Flag-ST-CD226 (N-terminus SNAP-tagged human CD226, expressed on transfected COS-7 or CHO cells) (receptor, UniProt Q15762 19-336, looked up)", "chain": "EEVLWHTSVPFAENMSLECVYPSMGILTQVEWFKIGTQQDSIAIFSPTHGMVIRKPYAERVYFLNSTMASNNMTLFFRNASEDDVGYYSCSLYTYPQGTWQKVIQVVQSDSFEAAVPSNSHIVSEPGKNVTLTCQPQMTWPVQAVRWEKIQPRQIDLLTYCNLVHGRNFTSKFPRQIVSNCSHGRWSVIVIPDVTVSDSGLYRCYLQASAGENETFVMRLTVAEGKTDNQYTLFVAGGTVLLLLFVISITTIIVIFLNRRRRRERRDLFTESWDTQKAPNNYRSPISTSQPTNQSMDDTREDIYVNYPTFSRRPKTRV", "modifications": "SNAP tag labelled with benzyl-guanine SNAP-Lumi-4Tb (donor) and/or SNAP-A647 (acceptor)", "notes": "whole, on cells; also called SNAP-tagged (ST) CD226; human ST-CD226; not shown: Flag tag; SNAP tag (ST)"}},
  "key": {"[1]": {"target": "T1, CD226-Flag (Flag-tagged human CD226, expressed in transfected COS 7 cells) (human, UniProt Q15762 19-336)", "T1 construct": "whole, on cells; This is the construct of the co-immunoprecipitation; Cells were lysed before the pull-down; also called Flag-CD226; not shown: Flag tag", "T1 sequence (looked up)": "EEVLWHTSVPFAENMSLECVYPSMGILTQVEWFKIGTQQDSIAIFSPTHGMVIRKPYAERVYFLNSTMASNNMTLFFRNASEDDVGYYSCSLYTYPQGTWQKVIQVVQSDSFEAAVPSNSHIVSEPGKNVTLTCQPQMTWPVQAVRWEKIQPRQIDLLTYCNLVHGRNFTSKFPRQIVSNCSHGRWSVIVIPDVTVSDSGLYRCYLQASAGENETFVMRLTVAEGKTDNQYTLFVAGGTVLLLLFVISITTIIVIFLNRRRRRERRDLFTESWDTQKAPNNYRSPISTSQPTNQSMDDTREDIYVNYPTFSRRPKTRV", "assay": "anti-FLAG and anti-HA immunoprecipitation and immunoblot from COS-7 cells transfected with Flag-CD226 and HA-TIGIT"}, "[2]": {"target": "B1", "assay": "TR-FRET on transfected COS-7 cells"}, "[3]": {"target": "B1", "assay": "TR-FRET ratio between Flag-ST-CD226 and HA-TIGIT Q56R"}, "TR-FRET on COS-7 cells": {"target": "the molecule itself", "assay": "TR-FRET on COS-7 cells", "procedure": "Briefly, COS-7 cells were transfected with SNAP-tagged (ST) CD226 and HA-TIGIT using Lipofectamine 2000 (Life Technologies) and seeded in a white 96-well plate (Costar) at 100,000 cells per well. 24 hours later, cells were labeled with 100 nM of donor-conjugated benzyl-guanine SNAP-Lumi-4Tb (Cisbio) and 1 μM […] benzyl-guanine SNAP-A647 (New England Biolabs) diluted in DMEM 10% FCS for 1 h at 37° C., 5% CO2. After three washes in PBS, the FRET signal was recorded at 665 nm for 400 μs after a 60 μs delay following laser excitation at 343 nm using a Safire2 plate reader (Tecan). When the anti-TIGIT antibody was tested, the FRET signal was also recorded after a 15 min incubation. The FRET ratio was then calculated as the FRET intensity divided by the donor emission at 620 nm. The FRET intensity being: (signal at 665 nm from cells labeled with SNAP-donor and acceptor)—(signal at 665 nm from the same batch of transfected cells labeled with SNAP-donor only)."}, "[4]": {"target": "T2, endogenous CD226 on primary human T cells (human, UniProt Q15762 19-336)", "T2 construct": "whole, on cells", "T2 sequence (looked up)": "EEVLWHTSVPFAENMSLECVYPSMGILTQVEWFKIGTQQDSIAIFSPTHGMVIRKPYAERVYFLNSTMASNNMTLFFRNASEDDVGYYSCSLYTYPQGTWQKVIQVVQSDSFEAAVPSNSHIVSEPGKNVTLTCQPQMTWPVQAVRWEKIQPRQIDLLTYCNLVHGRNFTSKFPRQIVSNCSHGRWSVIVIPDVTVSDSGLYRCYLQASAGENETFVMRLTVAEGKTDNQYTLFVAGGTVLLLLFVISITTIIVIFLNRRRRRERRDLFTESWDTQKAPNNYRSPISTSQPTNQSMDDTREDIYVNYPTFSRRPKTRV", "assay": "TR-FRET on primary human T cells with fluorophore-conjugated anti-TIGIT (clone 1F4) and anti-CD226", "from_the_text": "Primary human T cells were stimulated in vitro with anti-CD3 and anti-CD28 antibodies, sorted on the basis of TIGIT expression, rested, re-stimulated, and labeled with antibodies against endogenous TIGIT and CD226 that were conjugated to fluorophores compatible with TR-FRET. TIGIT-expressing T cells labeled with donor-conjugated anti-TIGIT and acceptor-conjugated anti-CD226 antibodies yielded a strong FRET signal (FIG. 30).\nHuman anti-TIGIT (Genentech clone 1F4), anti-CD226 (Santa Cruz Biotechnology), and anti-HVEM (eBioscience) antibodies were conjugated fluorophores compatible with TR-FRET (Cisbio). Primary human T cells were MACS-enriched from blood, stimulated in vitro with plate bound anti-CD3 and anti-CD28 for 72 hours. TIGIT-expressing and non-expressing T cells (all expressing CD226) were then sorted, rested without stimulation for 72 hours, and re-stimulated for 48 hours. […] T cells were then seeded at 400,000 cells/well in a white 96-well plate (Costar) and TR-FRET was recorded at 665 nm for 400 μs after a 60 μs delay following laser excitation at 343 nm using a PHERAstar plate reader (BMG Labtech). FRET intensity was expressed as the signal at 665 nm from cells labeled with Ab-Lumi4-Tb+Ab-d2 minus the signal at 665 nm from the same batch of cells labeled with Ab-Lumi4-Tb alone. […]"}},
  "data": [
    {"binder": "HA-TIGIT (N-terminus HA-tagged human TIGIT, expressed on transfected COS-7 or CHO cells) (receptor, UniProt Q495A1 22-244, looked up, whole, on cells; It is treated here as one construct; also called TIGIT-HA; HA-TIGIT (WT); not shown: HA tag at the N-terminus) MMTGTIETTGNISAEKGGSIILQCHLSSTTAQVTQVNWEQQDQLLAICNADLGWHISPSFKDRVAPGPGLGLTLQSLTVNDTGEYFCIYHTYPDGTYTGRIFLEVLESSVAEHGARFQIPLLGAMAATLVVICTAVIVVVALTRKKKALRIHSVEGDLRRKSAGQEEWSPSAPSPPGSCVQAEAAPAGLCGEQRGEDCAELHDYFNVLSYRSLGNCSFFTETG", "values": [
      {"measurement": "binding result", "setting": "[1]", "result": "binds"},
      {"measurement": "binding result", "setting": "[2]", "result": "binds"}
    ]},
    {"binder": "HA-TIGIT Q56R (receptor, UniProt Q495A1 22-244, looked up, whole, on cells; also called Q56R TIGIT; not shown: HA tag) MMTGTIETTGNISAEKGGSIILQCHLSSTTAQVTRVNWEQQDQLLAICNADLGWHISPSFKDRVAPGPGLGLTLQSLTVNDTGEYFCIYHTYPDGTYTGRIFLEVLESSVAEHGARFQIPLLGAMAATLVVICTAVIVVVALTRKKKALRIHSVEGDLRRKSAGQEEWSPSAPSPPGSCVQAEAAPAGLCGEQRGEDCAELHDYFNVLSYRSLGNCSFFTETG", "values": [
      {"measurement": "binding result", "setting": "[3]", "result": "binds"}
    ]},
    {"binder": "B1", "values": [
      {"measurement": "binding result", "setting": "TR-FRET on COS-7 cells", "result": "binds"}
    ]},
    {"binder": "endogenous TIGIT on primary human T cells (receptor, UniProt Q495A1 22-244, looked up, whole, on cells) MMTGTIETTGNISAEKGGSIILQCHLSSTTAQVTQVNWEQQDQLLAICNADLGWHISPSFKDRVAPGPGLGLTLQSLTVNDTGEYFCIYHTYPDGTYTGRIFLEVLESSVAEHGARFQIPLLGAMAATLVVICTAVIVVVALTRKKKALRIHSVEGDLRRKSAGQEEWSPSAPSPPGSCVQAEAAPAGLCGEQRGEDCAELHDYFNVLSYRSLGNCSFFTETG", "values": [
      {"measurement": "binding result", "setting": "[4]", "result": "binds"}
    ]}
  ]
}
